Test results published in PMC7758880 (Molecular Cell, 2020).

T1: Smc6 with a triple StrepII tag (S. cerevisiae, UniProt Q12749 1-1114)
T1 sequence: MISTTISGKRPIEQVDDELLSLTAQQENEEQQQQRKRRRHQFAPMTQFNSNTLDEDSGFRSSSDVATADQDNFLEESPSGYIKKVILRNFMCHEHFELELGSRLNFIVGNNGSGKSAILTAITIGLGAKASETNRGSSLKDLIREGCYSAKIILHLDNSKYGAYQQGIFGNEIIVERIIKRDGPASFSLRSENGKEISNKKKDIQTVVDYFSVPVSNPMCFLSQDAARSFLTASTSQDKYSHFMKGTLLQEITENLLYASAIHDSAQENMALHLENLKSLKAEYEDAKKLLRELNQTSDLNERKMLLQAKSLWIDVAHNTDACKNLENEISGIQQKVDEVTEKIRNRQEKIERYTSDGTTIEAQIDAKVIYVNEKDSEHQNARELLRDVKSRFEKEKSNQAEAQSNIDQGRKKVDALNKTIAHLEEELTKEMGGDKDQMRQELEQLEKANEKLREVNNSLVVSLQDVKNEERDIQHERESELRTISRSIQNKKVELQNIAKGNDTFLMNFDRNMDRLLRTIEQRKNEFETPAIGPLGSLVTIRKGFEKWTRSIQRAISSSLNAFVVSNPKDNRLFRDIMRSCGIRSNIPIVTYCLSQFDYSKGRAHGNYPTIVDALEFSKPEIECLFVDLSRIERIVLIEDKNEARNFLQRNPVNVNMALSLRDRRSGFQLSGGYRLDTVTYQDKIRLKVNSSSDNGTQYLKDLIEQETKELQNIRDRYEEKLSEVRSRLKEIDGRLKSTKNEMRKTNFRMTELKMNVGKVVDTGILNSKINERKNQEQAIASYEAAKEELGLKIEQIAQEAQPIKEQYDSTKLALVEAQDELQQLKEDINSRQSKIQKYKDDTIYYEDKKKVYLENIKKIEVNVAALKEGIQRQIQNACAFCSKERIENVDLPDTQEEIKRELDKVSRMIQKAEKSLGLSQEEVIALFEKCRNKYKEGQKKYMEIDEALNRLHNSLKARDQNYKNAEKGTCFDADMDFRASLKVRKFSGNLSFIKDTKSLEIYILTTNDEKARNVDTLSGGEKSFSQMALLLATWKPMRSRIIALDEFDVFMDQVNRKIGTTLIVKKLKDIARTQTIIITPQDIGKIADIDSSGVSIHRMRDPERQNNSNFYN

B1: Nse2 (enzyme)
chain: MALNDNPIPKSVPLHPKSGKYFHNLHARDLSNIYQQCYKQIDETINQLVDSTSPSTIGIEEQVADITSTYKLLSTYESESNSFDEHIKDLKKNFKQSSDACPQIDLSTWDKYRTGELTAPKLSELYLNMPTPEPATMVNNTDTLKILKVLPYIWNDPTCVIPDLQNPADEDDLQIEGGKIELTCPITCKPYEAPLISRKCNHVFDRDGIQNYLQGYTTRDCPQAACSQVVSMRDFVRDPIMELRCKIAKMKESQEQDKRSSQAIDVL
B2: Nse5 (natural protein)
chain: MDGALINSVLYVSPRNGAHYFVELTEKHLLAFEMLNSMCLLENYDHVLLFLECQFGKSHNLAVIPFDIILVLFTLSTLSEYYKEPILRANDPYNTSRETLSRRALKLLQKYLAILKEFDSEQYNLYDLELLRCQFFLAIDTLTPKKQKWGFDRFRRTKSESGVTYRQNASVDPELDQAKTFKNPYRSYISCLEQRNTILGNRLLNLKLNEPGEFINMILWTLSNSLQESTPLFLSSHEIWMPLLEILIDLFSCRQDYFIQHEVAQNVSKSLFVQRLSESPLAVFFESLNTRNFANRFSEYVFLNCDYKLPSDNYATPVHPVYNGENTIVDTYIPTIKCSPLYKSQKSLALRRKLIGSCFKLLLRVPDGHRLITPRIVADDVIQGISRTLASFNDILQFKKFFMTENLSQESYFIPLLAEGTLSEILKDTQECVVILTLVENLSDGVSFCNEVIGLVKSKCFAFTEQCSQASYEEAVLNIEKCDVCLLVLLRYLLHLIGTEAILDAKEQLEMLHAIEKNDSGRRQWAKALNLGNDPPLLYPIVSQMFGVHDKSVIIE
B3: Nse1 (natural protein)
chain: MEVHEEQVSAPVTGDATAKYLLQYILSARGICHENALILALMRLETDASTLNTEWSIQQWVDKLNDYINAINVKLNLLGYKIIRINHGIGRNAVTLKAKQNFESFEDNTAIRAHNNDYAVLQSIVLPESNRFFVYVNLASTEETKLATRFNQNEIEFMKWAIEQFMISGETIVEGPALETSIIVKEVNRILVAATGDSNLAKWRKFSTFTVGSTNLFQFQELTATDIEDLLLRLCELKWFYRTQEGKFGIDLRCIAELEEYLTSMYNLNTCQNCHKLAIQGVRCGNESCREENEETGENSLSQIWHVDCFKHYITHVSKNCDRCGSSLITEGVYVI
B4: Nse3 (natural protein)
chain: MSSIDNDSDVDLTEDLAVAKIVKENPVARKMVRYILSRGESQNSIITRNKLQSVIHEAAREENIAKPSFSKMFMDINAILYNVYGFELQGLPSKNNMNAGGNGSNSNTNKSMPEPLGHRAQKFILLNNVPHSKNFDDFKILQSAHTYEELIVTGEYIGDDIASGTSNTLESKLSTDRDLVYKGVLSVILCIVFFSKNNILHQELIKFLETFGIPSDGSKIAILNITIEDLIKSLEKREYIVRLEEKSDTDGEVISYRIGRRTQAELGLESLEKLVQEIMGLEKEQTKSLHDDIIKSIGDSYSI
B5: Nse4 with 8xHis and 3xHA tags (natural protein)
chain: MSSTVISRKRRNSTVTEPDSSGETRKQKKSRSDEKSSSSKDGDPQLEFKVLQGYRDLESEMHKGRAQVTRTGDIGVAMDNLNAVDSLFNKVIGIKNNGLFAHDARAMVSISELAQISVRNLKFDDSRSMVNLENIVNSLKRYMLKEHFKLNNIAENRNDLTLAADEQSAADQQEESDGDIDRTPDDNHTDKATSSFKATSMRHSYLQQFSHYNEFSQFNWFRIGALYNTISKNAPITDHLMGPLSIEKKPRVLTQRRRNNDQVGEKITAEKITQHSLNSTQQETTPEQVKKCFKKLSKKLGPEGSINLFKFIIDPNSFSRSIENLFYTSFLIKEGKLLMEHDEEGLPTIKIKQSISHTDSRSKEIERQRRRAAHQNHIIFQMDMPTWRKLIKKYNITSPFLD
B6: Smc5 (natural protein)
chain: MTSLIDLGRYVERTHHGEDTEPRSKRVKIAKPDLSSFQPGSIIKIRLQDFVTYTLTEFNLSPSLNMIIGPNGSGKSTFVCAVCLGLAGKPEYIGRSKKVEDFIKNGQDVSKIEITLKNSPNVTDIEYIDARDETIKITRIITRSKRRSDYLINDYQVSESVVKTLVAQLNIQLDNLCQFLSQERVEEFARLKSVKLLVETIRSIDASLLDVLDELRELQGNEQSLQKDLDFKKAKIVHLRQESDKLRKSVESLRDFQNKKGEIELHSQLLPYVKVKDHKEKLNIYKEEYERAKANLRAILKDKKPFANTKKTLENQVEELTEKCSLKTDEFLKAKEKINEIFEKLNTIRDEVIKKKNQNEYYRGRTKKLQATIISTKEDFLRSQEILAQTHLPEKSVFEDIDIKRKEIINKEGEIRDLISEIDAKANAINHEMRSIQRQAESKTKSLTTTDKIGILNQDQDLKEVRDAVLMVREHPEMKDKILEPPIMTVSAINAQFAAYLAQCVDYNTSKALTVVDSDSYKLFANPILDKFKVNLRELSSADTTPPVPAETVRDLGFEGYLSDFITGDKRVMKMLCQTSKIHTIPVSRRELTPAQIKKLITPRPNGKILFKRIIHGNRLVDIKQSAYGSKQVFPTDVSIKQTNFYQGSIMSNEQKIRIENEIINLKNEYNDRKSTLDALSNQKSGYRHELSELASKNDDINREAHQLNEIRKKYTMRKSTIETLREKLDQLKREARKDVSQKIKDIDDQIQQLLLKQRHLLSKMASSMKSLKNCQKELISTQILQFEAQNMDVSMNDVIGFFNEREADLKSQYEDKKKFVKEMRDTPEFQSWMREIRSYDQDTKEKLNKVAEKYEEEGNFNLSFVQDVLDKLESEIAMVNHDESAVTILDQVTAELRELEHTVPQQSKDLETIKAKLKEDHAVLEPKLDDIVSKISARFARLFNNVGSAGAVRLEKPKDYAEWKIEIMVKFRDNAPLKKLDSHTQSGGERAVSTVLYMIALQEFTSAPFRVVDEINQGMDSRNERIVHKAMVENACAENTSQYFLITPKLLTGLHYHEKMRIHCVMAGSWIPNPSEDPKMIHFGETSNYSFD

These binders were tested against T1, Smc6 with a triple StrepII tag (assay: cross-linking).
B1: binds.
B2: binds.
B3: binds.
B4: binds.
B5: binds.

What follows are binders tested against B5 (assay: cross-linking).
B4: binds.

What follows are binders tested against B6 (assay: cross-linking).
B1: binds.
B2: binds.
B3: binds.
B4: binds.
B5: binds.

What follows are binders tested against T1, Smc6 with a triple StrepII tag (assay: affinity purification with mass spectrometry).
B6: binds.
